# According to PMC10786891, “Massively parallel profiling of RNA-targeting CRISPR-Cas13d”:
# Numbering of substitutions follows the chain as printed. Names may count otherwise.
# T1: EsCas13d, nuclease-dead (Eubacterium siraeum, UniProt B0MS50, R295A;H300A;R849A;H854A)
# T1 sequence: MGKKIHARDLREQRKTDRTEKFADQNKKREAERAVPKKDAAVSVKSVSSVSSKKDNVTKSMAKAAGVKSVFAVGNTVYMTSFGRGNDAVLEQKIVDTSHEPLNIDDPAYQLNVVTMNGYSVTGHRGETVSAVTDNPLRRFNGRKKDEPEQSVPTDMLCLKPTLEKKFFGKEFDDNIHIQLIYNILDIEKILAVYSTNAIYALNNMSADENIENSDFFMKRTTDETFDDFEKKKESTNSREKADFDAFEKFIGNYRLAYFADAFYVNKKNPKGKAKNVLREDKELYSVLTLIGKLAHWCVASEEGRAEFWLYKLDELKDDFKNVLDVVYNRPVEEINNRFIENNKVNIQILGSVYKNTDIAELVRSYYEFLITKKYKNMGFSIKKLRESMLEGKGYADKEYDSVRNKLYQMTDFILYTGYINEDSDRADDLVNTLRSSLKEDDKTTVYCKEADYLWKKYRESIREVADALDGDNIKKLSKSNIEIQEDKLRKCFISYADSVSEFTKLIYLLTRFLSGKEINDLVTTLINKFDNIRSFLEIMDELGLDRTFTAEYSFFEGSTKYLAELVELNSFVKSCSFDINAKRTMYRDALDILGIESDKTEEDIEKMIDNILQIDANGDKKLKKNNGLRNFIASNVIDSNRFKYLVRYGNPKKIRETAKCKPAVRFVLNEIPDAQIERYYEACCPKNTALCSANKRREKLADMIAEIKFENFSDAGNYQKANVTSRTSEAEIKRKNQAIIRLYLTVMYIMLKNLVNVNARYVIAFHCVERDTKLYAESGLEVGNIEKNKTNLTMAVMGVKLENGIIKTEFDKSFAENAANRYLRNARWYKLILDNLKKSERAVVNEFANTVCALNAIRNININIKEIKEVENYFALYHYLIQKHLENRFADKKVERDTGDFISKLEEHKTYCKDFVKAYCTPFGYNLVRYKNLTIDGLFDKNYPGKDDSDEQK
# B1: target 1 complement block 3-9 (mixed)
# RNA 1: CACCCGUGCAAAAAUGCAGGGGUCUAAAACUGAGCGGAUAACCUCUCUAUGG
# RNA 2: GGGAAUGGAUCCACAUCUACGAAUUCGUACCAUAGAGAGGUUUAGGCGACACCGAGAUCGGAAGAGCACACGU
# B2: target 1 MT 5'PFS GCA 3'PFS UUG (mixed)
# RNA 1: B1 RNA 1
# RNA 2: GGGAAUGGAUCCACAUCUACGAAUUCGCACCAUAGAGAGGUUAUCCGCUCAUUGAGAUCGGAAGAGCACACGU
# B3: target 1 MT 5'PFS GGG 3'PFS CAA (mixed)
# RNA 1: B1 RNA 1
# RNA 2: B2 RNA 2 with C28G, A29G, U52C, U53A, G54A
# B4: target 1 A1C,C4A (mixed)
# RNA 1: B1 RNA 1
# RNA 2: B2 RNA 2 with C28U, C48A, A51C, U52C, U53C
# B5: target 1 MT 5'PFS AGC 3'PFS AAA (mixed)
# RNA 1: B1 RNA 1
# RNA 2: B2 RNA 2 with G27A, C28G, A29C, U52A, U53A, G54A
# B6: target 1 MT 5'PFS AAG 3'PFS UUG (mixed)
# RNA 1: B1 RNA 1
# RNA 2: B2 RNA 2 with G27A, C28A, A29G
# B7: target 1 MT 5'PFS GGG 3'PFS UUC (mixed)
# RNA 1: B1 RNA 1
# RNA 2: B2 RNA 2 with C28G, A29G, G54C
# B8: target 1 MT 5'PFS GGG 3'PFS CAC (mixed)
# RNA 1: B1 RNA 1
# RNA 2: B2 RNA 2 with C28G, A29G, U52C, U53A, G54C
# B9: target 1 MT 5'PFS GGG 3'PFS CAG (mixed)
# RNA 1: B1 RNA 1
# RNA 2: B2 RNA 2 with C28G, A29G, U52C, U53A
# B10: target 1 MT 5'PFS GCU 3'PFS AGC (mixed)
# RNA 1: B1 RNA 1
# RNA 2: B2 RNA 2 with A29U, U52A, U53G, G54C
# B11: target 1 MT 5'PFS GGG 3'PFS ACG (mixed)
# RNA 1: B1 RNA 1
# RNA 2: B2 RNA 2 with C28G, A29G, U52A, U53C
# B12: target 1 MT 5'PFS UAG 3'PFS AAA (mixed)
# RNA 1: B1 RNA 1
# RNA 2: B2 RNA 2 with G27U, C28A, A29G, U52A, U53A, G54A
# B13: target 1 MT 5'PFS UAG 3'PFS AAC (mixed)
# RNA 1: B1 RNA 1
# RNA 2: B2 RNA 2 with G27U, C28A, A29G, U52A, U53A, G54C
# B14: target 1 MT 5'PFS GGG 3'PFS UUA (mixed)
# RNA 1: B1 RNA 1
# RNA 2: B2 RNA 2 with C28G, A29G, G54A
# B15: target 1 MT 5'PFS GAA 3'PFS CUA (mixed)
# RNA 1: B1 RNA 1
# RNA 2: B2 RNA 2 with C28A, U52C, G54A
# B16: target 1 MT 5'PFS CCU 3'PFS AUA (mixed)
# RNA 1: B1 RNA 1
# RNA 2: B2 RNA 2 with G27C, A29U, U52A, G54A
# B17: target 1 MT 5'PFS GGG 3'PFS UUG (mixed)
# RNA 1: B1 RNA 1
# RNA 2: B2 RNA 2 with C28G, A29G
# B18: target 1 MT 5'PFS GGG 3'PFS CAU (mixed)
# RNA 1: B1 RNA 1
# RNA 2: B2 RNA 2 with C28G, A29G, U52C, U53A, G54U
# B19: target 1 MT 5'PFS GGG 3'PFS ACA (mixed)
# RNA 1: B1 RNA 1
# RNA 2: B2 RNA 2 with C28G, A29G, U52A, U53C, G54A
# B20: target 1 MT 5'PFS AAG 3'PFS UUC (mixed)
# RNA 1: B1 RNA 1
# RNA 2: B2 RNA 2 with G27A, C28A, A29G, G54C
# B21: target 1 MT 5'PFS CUU 3'PFS AAC (mixed)
# RNA 1: B1 RNA 1
# RNA 2: B2 RNA 2 with G27C, C28U, A29U, U52A, U53A, G54C
# B22: target 1 MT 5'PFS GGG 3'PFS UUU (mixed)
# RNA 1: B1 RNA 1
# RNA 2: B2 RNA 2 with C28G, A29G, G54U
# B23: target 1 MT 5'PFS CCU 3'PFS AUC (mixed)
# RNA 1: B1 RNA 1
# RNA 2: B2 RNA 2 with G27C, A29U, U52A, G54C
# B24: target 1 MT 5'PFS ACA 3'PFS AGG (mixed)
# RNA 1: B1 RNA 1
# RNA 2: B2 RNA 2 with G27A, U52A, U53G
# B25: target 1 U10A,G15C (mixed)
# RNA 1: B1 RNA 1
# RNA 2: B2 RNA 2 with C28U, G37C, U42A, U52C, U53C
# B26: target 1 insC 3' of 16,insA 3' of 8 (mixed)
# RNA 1: B1 RNA 1
# RNA 2: GGGAAUGGAUCCACAUCUACGAAUUCGUACCAUAGACGAGGUUAUACCGCUCACCGAGAUCGGAAGAGCACACGU
# B27: target 1 MT 5'PFS UCG 3'PFS CUA (mixed)
# RNA 1: B1 RNA 1
# RNA 2: B2 RNA 2 with G27U, A29G, U52C, G54A
# B28: target 1 MT 5'PFS UCG 3'PFS UUU (mixed)
# RNA 1: B1 RNA 1
# RNA 2: B2 RNA 2 with G27U, A29G, G54U
# B29: target 1 insA 3' of 17,insA 3' of 4 (mixed)
# RNA 1: B1 RNA 1
# RNA 2: B26 RNA 2 with C37A, A46C, C48G, G49C, C50A
# B30: target 1 del2 (mixed)
# RNA 1: B1 RNA 1
# RNA 2: GGGAAUGGAUCCACAUCUACGAAUUCGUACCAUAGAGAGGUUAUCCGCUACCGAGAUCGGAAGAGCACACGU
# B31: target 1 MT 5'PFS GCA 3'PFS UUU (mixed)
# RNA 1: B1 RNA 1
# RNA 2: B2 RNA 2 with G54U
# B32: target 1 del1 (mixed)
# RNA 1: B1 RNA 1
# RNA 2: B30 RNA 2 with A50C
# B33: target 1 MT 5'PFS CUU 3'PFS AAU (mixed)
# RNA 1: B1 RNA 1
# RNA 2: B2 RNA 2 with G27C, C28U, A29U, U52A, U53A, G54U
# B34: target 1 MT 5'PFS GCU 3'PFS AGA (mixed)
# RNA 1: B1 RNA 1
# RNA 2: B2 RNA 2 with A29U, U52A, U53G, G54A
# B35: target 1 MT 5'PFS UAG 3'PFS AAG (mixed)
# RNA 1: B1 RNA 1
# RNA 2: B2 RNA 2 with G27U, C28A, A29G, U52A, U53A
# B36: target 1 MT 5'PFS UUG 3'PFS AAU (mixed)
# RNA 1: B1 RNA 1
# RNA 2: B2 RNA 2 with G27U, C28U, A29G, U52A, U53A, G54U
# B37: target 1 MT 5'PFS GAA 3'PFS CUU (mixed)
# RNA 1: B1 RNA 1
# RNA 2: B2 RNA 2 with C28A, U52C, G54U
# B38: target 1 MT 5'PFS GCU 3'PFS UAU (mixed)
# RNA 1: B1 RNA 1
# RNA 2: B2 RNA 2 with A29U, U53A, G54U
# Target: T1, EsCas13d, nuclease-dead
# Assay: crRNA (strand 1, pre-loaded); Mg2+; 40 mM Tris-HCl pH 7.5, 150 mM NaCl, 6 mM MgCl2, 1 mM DTT, 0.1% Tween-20, 0.2 mg/ml BSA; 25 C; 10 min per concentration, then washed
# Conditions: tags: His6-TwinStrep-SUMO cleaved; N-terminal SNAP kept (SNAP-Surface 488); label: 3' end held by stalled T7 RNA polymerase
row,Binder,Kd [nM]
1,B1,8.8 ± 0.4
2,B2,5.14 ± 0.38
3,B3,50.5 ± 21.5
4,B4,7.5 ± 1
5,B5,~52
6,B6,13.5 ± 2
7,B7,16.4 ± 1.95
8,B8,~55.5
9,B9,32 ± 5.5
10,B10,36 ± 7
11,B11,17.5 ± 1.85
12,B12,34 ± 7
13,B13,34 ± 6
14,B14,16.8 ± 2.55
15,B15,~40
16,B16,21 ± 5
17,B17,7.3 ± 0.45
18,B18,32 ± 12
19,B19,28.5 ± 6.5

row,Binder,Kd [nM]
1,B20,16 ± 6
2,B21,41 ± 17.5
3,B22,14.7 ± 2.05
4,B23,21 ± 8
5,B24,~46
6,B25,98 ± 17
7,B26,56 ± 12
8,B27,29 ± 7
9,B28,24 ± 5
10,B29,10 ± 0.7
11,B30,33 ± 4
12,B31,11 ± 2.4
13,B32,39 ± 9
14,B33,58 ± 27
15,B34,56 ± 16.5
16,B35,45.5 ± 13
17,B36,22.5 ± 4.25
18,B37,18.5 ± 7.5
19,B38,73 ± 28
